The values that follow come from publication PMC9437721, “Identification and characterization of two Isatis indigotica O-methyltransferases methylating C-glycosylflavonoids” (Horticulture Research, 2022).

Substrate in series [1]: O=c1cc(-c2ccc(O)c(O)c2)oc2cc(O)cc(O)c12
Briefly: O-methyltransferase assay, UPLC, Michaelis-Menten fit. Type of series: biochemical, Isatis tinctoria. To be noted: 480 μM SAM, Tris-HCl pH 8.0, 45 °C. The text has this: (§1) O-methyltransferase assay, UPLC, Michaelis-Menten fit on IiOMT1

Substrate in series [2]: O=c1cc(-c2ccc(O)c(O)c2)oc2cc(O)c([C@@H]3O[C@H](CO)[C@@H](O)[C@H](O)[C@H]3O)c(O)c12
Described as above. It counts as biochemical, Isatis tinctoria. To be noted: 480 μM SAM, Tris-HCl pH 8.0, 45 °C.
Description: as §1

B1: IiOMT1 (Isatis tinctoria) (protein)
chain: MATTTTEATKTSTNGEDKQSQNLRHQEVGHKSLLQSDDLYQYILETSVYPREPESMKELREVTAKHPWNIMTTSADEGQFLNMLIKLINAKNTMEIGVYTGYSLLATALALPEDGKILAMDVNRENYELGLPIIEKAGVAHKIDFREGPALPVLDQLVADEKNHGTYDFIFVDADKDNYINYHKRLIDLVKVGGVIGYDNTLWNGSVVAAPDAPMRKYVRYYRDFVLELNKALAADPRIEICMLPVGDGITICRRIN
notes: N-terminal His6-SUMO tag kept (pE-SUMO), E. coli Rosetta (DE3), Ni-NTA
Regarding B1, in series [1], the Km turned out to be 113.5 ± 10.41 µmol/L, the kcat came out at 0.413 s⁻¹ and the catalytic efficiency (kcat/Km) is 3650 M⁻¹ s⁻¹. Also, in series [2], the Michaelis constant (Km) came out at 75.56 ± 8.21 µmol/L, the catalytic constant (kcat) turned out to be 0.304 s⁻¹ and the kcat/Km came to 4040 M⁻¹ s⁻¹.

As usually defined, the Km is the substrate concentration at which the rate is half of its maximum. As a reminder, the kcat is the maximal rate divided by the concentration of active sites. Usually kcat/Km stands for the second-order rate constant that governs catalysis at low substrate concentration.
